In patent publication US20200087400A1 (EUREKA THERAPEUTICS, published 2020):

What was measured:
[1] = target: T1, PSA 146-154 peptide/HLA-A*02:01 complex on the cell surface (human); assay: flow cytometry, phage on T2 cells, anti-M13 + R-PE anti-mouse IgG
T1 construct: also called PSA146/HLA-A*02:01; PSA146-loaded T2 cells
Description: (§1) Binding of the phage clones was detected by HRP-conjugated anti-M13 antibodies and developed using HRP substrate. The absorbance was read at 450 nm. […] Then, unique antibody clones were identified through DNA sequencing of ELISA-positive clones. […] T2 cells loaded with different peptides and β2M were first stained with purified scFv phage clones, followed by staining with a mouse anti-M13 mAb, and finally R-PE conjugated horse anti-mouse IgG from Vector Labs. Each step of the staining was performed for between 30-60 minutes on ice and the cells were washed twice between stainings. All 16 clones recognized PSA146-loaded T2 cells specifically. FIG. 3 provides examples of PSA146/HLA-A*02:01 specific phage clone binding to peptide-loaded T2 cells through FACS. […] The negative control scFv phage clone presents a human antibody previously found not to bind any cell-surface human antigens.
(§2) To identify additional PSA146/HLA-A*02:01 specific phage clones.

[2] = target: T2, control peptide A2E-15/HLA-A*02:01 complex on T2 cells (member of the P19 mixture) (human); assay: flow cytometry, phage on T2 cells
T2 construct: Loaded on T2 cells as part of the mixture of 19 control peptides
Description: as §1, §2

[3] = target: T3, control peptide A2E-23/HLA-A*02:01 complex on T2 cells (member of the P19 mixture) (human); assay: flow cytometry, phage on T2 cells
T3 construct: Loaded on T2 cells as part of the mixture of 19 control peptides
Description: as §1, §2

[4] = target: T4, control peptide A2E-3/HLA-A*02:01 complex on T2 cells (member of the P19 mixture) (human); assay: flow cytometry, phage on T2 cells
T4 construct: Loaded on T2 cells as part of the mixture of 19 control peptides
Description: as §1, §2

[5] = target: T5, control peptide A2E-11/HLA-A*02:01 complex on T2 cells (member of the P19 mixture) (human); assay: flow cytometry, phage on T2 cells
T5 construct: Loaded on T2 cells as part of the mixture of 19 control peptides
Description: as §1, §2

[6] = target: T6, control peptide A2E-21/HLA-A*02:01 complex on T2 cells (member of the P19 mixture) (human); assay: flow cytometry, phage on T2 cells
T6 construct: Loaded on T2 cells as part of the mixture of 19 control peptides
Description: as §1, §2

[7] = target: T7, control peptide A2E-4/HLA-A*02:01 complex on T2 cells (member of the P19 mixture) (human); assay: flow cytometry, phage on T2 cells
T7 construct: Loaded on T2 cells as part of the mixture of 19 control peptides
Description: as §1, §2

[8] = target: T8, control peptide A2E-8/HLA-A*02:01 complex on T2 cells (member of the P19 mixture) (human); assay: flow cytometry, phage on T2 cells
T8 construct: Loaded on T2 cells as part of the mixture of 19 control peptides
Description: as §1, §2

[9] = target: T9, control peptide A2E-16/HLA-A*02:01 complex on T2 cells (member of the P19 mixture) (human); assay: flow cytometry, phage on T2 cells
T9 construct: Loaded on T2 cells as part of the mixture of 19 control peptides
Description: as §1, §2

[10] = target: T10, control peptide A2E-14/HLA-A*02:01 complex on T2 cells (member of the P19 mixture) (human); assay: flow cytometry, phage on T2 cells
T10 construct: Loaded on T2 cells as part of the mixture of 19 control peptides
Description: as §1, §2

[11] = target: T11, control peptide A2E-19/HLA-A*02:01 complex on T2 cells (member of the P19 mixture) (human); assay: flow cytometry, phage on T2 cells
T11 construct: Loaded on T2 cells as part of the mixture of 19 control peptides
Description: as §1, §2

[12] = target: T12, control peptide A2E-5/HLA-A*02:01 complex on T2 cells (member of the P19 mixture) (human); assay: flow cytometry, phage on T2 cells
T12 construct: Loaded on T2 cells as part of the mixture of 19 control peptides
Description: as §1, §2

[13] = target: T13, control peptide A2E-1/HLA-A*02:01 complex on T2 cells (member of the P19 mixture) (human); assay: flow cytometry, phage on T2 cells
T13 construct: Loaded on T2 cells as part of the mixture of 19 control peptides
Description: as §1, §2

[14] = target: T14, control peptide A2E-6/HLA-A*02:01 complex on T2 cells (member of the P19 mixture) (human); assay: flow cytometry, phage on T2 cells
T14 construct: Loaded on T2 cells as part of the mixture of 19 control peptides
Description: as §1, §2

[15] = target: T15, control peptide A2E-10/HLA-A*02:01 complex on T2 cells (member of the P19 mixture) (human); assay: flow cytometry, phage on T2 cells
T15 construct: Loaded on T2 cells as part of the mixture of 19 control peptides
Description: as §1, §2

[16] = target: T16, control peptide A2E-13/HLA-A*02:01 complex on T2 cells (member of the P19 mixture) (human); assay: flow cytometry, phage on T2 cells
T16 construct: Loaded on T2 cells as part of the mixture of 19 control peptides
Description: as §1, §2

[17] = target: T17, control peptide A2E-2/HLA-A*02:01 complex on T2 cells (member of the P19 mixture) (human); assay: flow cytometry, phage on T2 cells
T17 construct: Loaded on T2 cells as part of the mixture of 19 control peptides
Description: as §1, §2

[18] = target: T18, control peptide A2E-9/HLA-A*02:01 complex on T2 cells (member of the P19 mixture) (human); assay: flow cytometry, phage on T2 cells
T18 construct: Loaded on T2 cells as part of the mixture of 19 control peptides
Description: as §1, §2

[19] = target: T19, control peptide A2E-7/HLA-A*02:01 complex on T2 cells (member of the P19 mixture) (human); assay: flow cytometry, phage on T2 cells
T19 construct: Loaded on T2 cells as part of the mixture of 19 control peptides
Description: as §1, §2

[20] = target: T20, control peptide A2E-17/HLA-A*02:01 complex on T2 cells (member of the P19 mixture) (human); assay: flow cytometry, phage on T2 cells
T20 construct: Loaded on T2 cells as part of the mixture of 19 control peptides
Description: as §1, §2

B1: PSA146/HLA-A*02:01-specific scFv phage clone #26 (scFv, V domains shown)
VH: QVQLVQSGAEVKKPGASVKVSCKTSGYTFTNYGISWVRQAPGQGLEWMGWISAYNGNTNYAQNLQGRVTMTTDTSTSTAYMELRSLRSDDTAVYYCARSSYYGYLSDGWGQGTLVTVSS
VL: LPVLTQPPSASGTPGQRVTISCSGSSSNIGTNYVYWYQQLPGTAPKLLIYSNNQRPSGVPDRFSGSKSGTSASLAISGLRSEDEADYYCAAWDDSLSGLYVFGTGTKVTVLG
- binding result [1]: binds
- binding result [2]: no binding
- binding result [3]: no binding
- binding result [4]: no binding
- binding result [5]: no binding
- binding result [6]: no binding
- binding result [7]: no binding
- binding result [8]: no binding
- binding result [9]: no binding
- binding result [10]: no binding
- binding result [11]: no binding
- binding result [12]: no binding
- binding result [13]: no binding
- binding result [14]: no binding
- binding result [15]: no binding
- binding result [16]: no binding
- binding result [17]: no binding
- binding result [18]: no binding
- binding result [19]: no binding
- binding result [20]: no binding
